Source: article PMC7210939, “ABCG2 transports anticancer drugs via a closed-to-open switch” (Nature Communications, 2020)

Target: T1, Wild-type human ABCG2 with an N-terminal GFP tag (human, UniProt Q9UNQ0)
T1 construct: ABCG2, human, wild type; also called GFP-ABCG2; WT; not shown: GFP, N-terminal, kept
Assay: flow cytometry on cells; 5D3 antibody shift assay: stable GFP-ABCG2 HEK293F cells, 1 ug/mL 5D3 in PBS with 0.5% BSA, 37 °C 45 min, with or without MXN, SN38, imatinib or Ko143; goat-anti-mouse IgG-PE; gated on high GFP
Details: one partner purified

T1 sequence (Q9UNQ0 whole entry): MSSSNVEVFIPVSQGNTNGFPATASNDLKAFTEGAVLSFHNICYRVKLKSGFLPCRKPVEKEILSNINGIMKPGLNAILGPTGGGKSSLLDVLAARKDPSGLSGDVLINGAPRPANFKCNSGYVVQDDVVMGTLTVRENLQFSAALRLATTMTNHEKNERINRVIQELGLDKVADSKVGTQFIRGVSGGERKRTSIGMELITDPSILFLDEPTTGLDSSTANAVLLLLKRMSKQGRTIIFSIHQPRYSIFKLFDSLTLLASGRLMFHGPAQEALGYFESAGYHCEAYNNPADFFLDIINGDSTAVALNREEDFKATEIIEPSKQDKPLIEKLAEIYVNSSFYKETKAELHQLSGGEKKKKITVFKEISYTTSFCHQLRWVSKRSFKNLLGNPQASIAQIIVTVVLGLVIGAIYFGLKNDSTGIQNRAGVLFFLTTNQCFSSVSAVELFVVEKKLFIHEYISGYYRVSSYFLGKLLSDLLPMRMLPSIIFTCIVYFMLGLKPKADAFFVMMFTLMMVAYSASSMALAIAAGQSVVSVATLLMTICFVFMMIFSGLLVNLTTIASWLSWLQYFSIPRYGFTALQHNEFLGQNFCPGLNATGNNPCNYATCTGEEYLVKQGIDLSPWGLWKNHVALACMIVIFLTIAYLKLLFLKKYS

- binding result: binds
B1: 5D3 antibody (antibody, V domains shown)
VH: QVQLQESGPGLVKPSQSLSLTCTVTGFSITSDYAWNWIRQFPGKKLEWMGYINFDGGTTYNPSLRGRISITRDTSKNQFFLQLRSVTPEDTATYYCATFYGAKGTLDYWGQGTSVTVSS
VL: DIVLTQSPSSFSVSLGDRVTISCKASGYILNRLAWYQQKPGNAPRLLISGATSLETGFPSRFSGTGSGKDYTLSISSLQTEDVGTYYCQQYWSTPWTFGGGTKLEIR
notes: the PDB entry holds the Fab only; also called conformation specific 5D3 antibody
